Holding throughout (assay): SPR, steady state, Fab over captured mutant
(In general: Surface plasmon resonance follows binding to a sensor surface in real time, without labels.)

One experiment concerns the target T1, shCD131 M340A (human, UniProt P32927 17-438).
T1 construct: C-terminal 6xHis
T1 sequence: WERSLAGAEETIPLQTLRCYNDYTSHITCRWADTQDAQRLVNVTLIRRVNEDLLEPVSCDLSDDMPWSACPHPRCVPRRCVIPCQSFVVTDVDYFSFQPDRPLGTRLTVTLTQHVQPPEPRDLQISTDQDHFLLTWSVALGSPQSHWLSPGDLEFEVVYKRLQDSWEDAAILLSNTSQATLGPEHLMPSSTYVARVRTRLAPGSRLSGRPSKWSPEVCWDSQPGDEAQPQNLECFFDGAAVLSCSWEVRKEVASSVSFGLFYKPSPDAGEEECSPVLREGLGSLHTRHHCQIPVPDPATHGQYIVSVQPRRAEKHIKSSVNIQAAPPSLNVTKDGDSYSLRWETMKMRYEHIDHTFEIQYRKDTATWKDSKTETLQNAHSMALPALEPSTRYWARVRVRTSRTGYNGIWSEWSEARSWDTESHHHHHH
The method, then: (§1) For some analysis purified Fab was injected over each flow cell for 3 minutes and dissociation was monitored for a further 10 minutes. Regeneration of the surface was performed after each cycle with a 40 second injection of 25 mM glycine, pH 2.0. The analysis was performed with Fabs at several concentrations between 100 and 0.31 nM, with each concentration analyzed twice and in random order. The analysis was performed at a flow rate of 30 μl/min in HBS-EP buffer (10 mM Hepes, 150 mM NaCl, 3 mM EDTA, 0.005% Tween 20, pH 7.4) at 37° C. Responses from spots 2 and 4 of each flow cell, (in which shβc was not captured, but otherwise treated identically), were subtracted from those of spots 1 and 5 respectively to produce reference subtracted data. Reference subtracted responses from a blank injection comprising buffer alone were subtracted from the resultant sensorgrams to produce double referenced data suitable for kinetic analysis. Double-referenced sensorgrams were fitted using non-linear regression to a model describing 1:1 kinetics, including a term for mass transport limitation. The Rₘₐₓ value was fitted locally to account for slight deviations in the level of sCD131 captured, with association rate (kₐ), dissociation rate (kd) and equilibrium dissociation constant (KD) fitted globally.
(§2) Mapping of the shCD131 epitope was performed by measurement of the affinity of Fabs for various alanine point mutants of shCD131 essentially as described above, with the following exceptions. Each shCD131 mutant was captured for 120 seconds at concentrations between 1 and 5 μg/ml. For kinetic analysis, purified recombinant Fabs were injected for 2 minutes, and dissociation was monitored for a further 2 minutes. […] Fab concentrations ranged from 16 μM to 3.9 nM in two-fold dilutions. The assays were conducted at 25° C. All sensorgrams were reference subtracted as described above. For determination of steady-state affinity (KD only), the response at the end of the binding phase was used to fit the data to a single-site binding model. Kinetic parameters were determined as described above.

In another experiment the target is T2, shCD131 H367A (human, UniProt P32927 17-438).
T2 construct: C-terminal 6xHis
T2 sequence: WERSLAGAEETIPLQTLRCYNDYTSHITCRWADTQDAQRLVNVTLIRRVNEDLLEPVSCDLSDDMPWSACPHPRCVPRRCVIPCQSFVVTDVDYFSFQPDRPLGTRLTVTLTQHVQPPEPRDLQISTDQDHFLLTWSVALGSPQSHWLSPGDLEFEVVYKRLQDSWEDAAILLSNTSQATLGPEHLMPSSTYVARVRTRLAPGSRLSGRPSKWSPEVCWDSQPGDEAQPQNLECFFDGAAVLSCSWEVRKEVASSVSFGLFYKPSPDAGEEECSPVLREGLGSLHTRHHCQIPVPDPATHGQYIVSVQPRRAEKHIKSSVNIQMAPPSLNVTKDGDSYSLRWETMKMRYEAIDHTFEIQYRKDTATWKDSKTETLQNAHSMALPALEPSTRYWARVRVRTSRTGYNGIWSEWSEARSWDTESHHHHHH
The method, then:
as §1, §2

Another experiment has as its target T3, shCD131 T40A (human, UniProt P32927 17-438).
T3 construct: C-terminal 6xHis
T3 sequence: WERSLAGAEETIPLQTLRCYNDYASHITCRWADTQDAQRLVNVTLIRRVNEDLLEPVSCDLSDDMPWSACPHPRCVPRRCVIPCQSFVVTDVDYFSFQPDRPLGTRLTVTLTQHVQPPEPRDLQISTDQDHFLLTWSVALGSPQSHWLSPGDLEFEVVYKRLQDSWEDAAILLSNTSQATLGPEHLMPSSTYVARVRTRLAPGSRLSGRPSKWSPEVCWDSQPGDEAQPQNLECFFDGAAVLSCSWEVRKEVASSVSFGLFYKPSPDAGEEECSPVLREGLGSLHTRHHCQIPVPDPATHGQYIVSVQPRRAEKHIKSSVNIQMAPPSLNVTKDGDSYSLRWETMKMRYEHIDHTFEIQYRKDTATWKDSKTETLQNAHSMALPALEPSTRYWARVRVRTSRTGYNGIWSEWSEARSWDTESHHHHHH
How it is done:
as §1, §2

“And” between values parts separate entries of the source, which are not always exact repeats. Identical values can stand only once.

B1: 9A2 Fab (Fab, V domains shown)
VH: EVQLLESGGGLVQPGGSLRLSCAASGFTFSHYHMLWVRQAPGKGLEWVSSIRSSGGFTYYADSVKGRFTISRDNSKNTLYLQMNSLRAEDTAVYYCARFYDSFFDIWGQGTMVTVSS
VL: DIQMTQSPSSVSASVGDRVTITCRASQGISSWLAWYQQKPGKAPKLLIYAASSLQSGVPSRFSGSGSGTDFTLTISSLQPEDFATYYCQQANSFPITFGQGTRLEIKR
notes: also called recombinant Fab of 9A2
For B1, the equilibrium dissociation constant (Kd) in the experiment with shCD131 M340A is 235 nM; with shCD131 H367A, 10.3 µM and 10.8 µM; with shCD131 T40A, 236 nM.

One may read the Kd as the concentration at which binding is half-saturated.

The values above are taken from patent US20190062438A1 (CSL, published 2019).
